Values belong to the binder of their own block, whether it stands above or below them.
Key:
[1] = molecular target: T1, human JAG1 on cells (K562 cells; Calu-6 cells) (human, UniProt P78504 34-1218); assay: flow cytometry on K562 cells, IgG titrated, PE anti-human IgG, median fluorescence
T1 construct: whole, on cells; Calu-6 are called JAG-1 expressing cells; also called JAG-1 expressing cells
Protocol: This example describes a cellular binding assay to determine the EC₅₀ for certain anti-JAG1 antibodies binding to K562 cells (ATCC CCL-243), where the concentration at which 50% binding saturation (EC₅₀) is reached. In this example, K562 cells were resuspended in FACS Buffer (2% Fetal Bovine Serum in PBS) at 1×10⁶ cells/ml. 50 μl (0.5×10⁵ cells) were aliquoted into the wells of a 96-well plate. Plated cells were spun down and the supernatant discarded. Cells were resuspended in serially diluted concentrations of each JAG1 IgG in 30 μl FACS Buffer done in triplicate. The antibodies and cells were incubated for 1 hr at 4° C. and then washed 2× with FACS Buffer. Cells were resuspended in 50 μl goat anti-human IgG (γ-chain specific)-PE-conjugated secondary antibody (Southern Biotech #2040-09) diluted 1:750 in FACS Buffer. Cells were further incubated in the dark for 30 min at 4° C. and then washed 1× with FACS Buffer. The cells were resuspended in a final volume of 30 μl FACS Buffer and analyzed using an Intellicyt Flow Cytometer. Median fluorescence in the FL-2H channel was determined using FlowJo software and EC₅₀ value was determined by a variable slope non-linear regression using ForeCyte software.

[2] = molecular target: T1, human JAG1 on cells (K562 cells; Calu-6 …); assay: cell-based or functional assay
[3] = molecular target: T2, biotinylated human delta-like 1 (DLL1) (human, UniProt O00548 18-540, limits assumed, biotinylated (sites not given)); assay: capture ELISA: JG1H7 IgG captured on anti-human kappa, serially diluted biotinylated DLL1, neutravidin-AP, PNPP, absorbance
T2 sequence (looked up): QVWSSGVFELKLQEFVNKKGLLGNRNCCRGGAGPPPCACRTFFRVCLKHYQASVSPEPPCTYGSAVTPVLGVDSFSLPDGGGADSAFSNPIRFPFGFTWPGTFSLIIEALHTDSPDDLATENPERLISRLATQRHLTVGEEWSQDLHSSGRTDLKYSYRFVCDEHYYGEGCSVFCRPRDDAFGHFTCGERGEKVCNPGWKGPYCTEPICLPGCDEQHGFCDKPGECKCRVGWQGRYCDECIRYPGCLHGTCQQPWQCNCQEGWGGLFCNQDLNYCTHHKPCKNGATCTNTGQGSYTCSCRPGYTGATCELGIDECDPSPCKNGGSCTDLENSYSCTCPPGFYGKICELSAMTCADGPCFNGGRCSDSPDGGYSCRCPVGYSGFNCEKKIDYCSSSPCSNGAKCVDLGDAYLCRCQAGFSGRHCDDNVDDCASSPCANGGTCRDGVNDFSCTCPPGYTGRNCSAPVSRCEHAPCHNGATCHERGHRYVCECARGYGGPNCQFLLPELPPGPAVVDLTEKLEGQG
Protocol: (§1) Finally, an ELISA assay was carried out to determine antibody cross-reactivity to delta-like 1 (DLL1) and delta-like 2 (DLL2). One ELISA plate was coated with anti-human lambda and another ELISA plate was coated with anti-human kappa overnight at 4° C. The next morning each plate was blocked with a 1:1 mixture of casein:Super Block for 2 hours at room temperature. The B10 IgG was diluted to 0.3 μg/ml in block and added to the anti-human lambda coated wells, while the JG1H7 IgG was diluted to 0.3 μg/ml in block and added to the anti-human kappa coated wells and incubated at room temperature for 3 hours. As a control, other wells were treated with only block. After washing, serially-diluted biotinylated antigen (JAG1, DLL1, DLL2) was added to a column with captured antibody and a control column with no antibody, and incubated 1 hour at room temperature. After washing, neutravidin-AP was added, incubated for 20 min at room temperature, the plate washed and developed with 1-step PNPP, and the plate analyzed in a plate reader.

[4] = molecular target: T3, human JAG2-Fc (human, UniProt Q9Y219 24-1080, limits assumed); assay: ELISA: plate coated with human JAG2-Fc, serially diluted IgG, labeled goat anti-human Fd antibody, absorbance
T3 construct: not shown: Fc
T3 sequence (Q9Y219 24-1080 limits assumed): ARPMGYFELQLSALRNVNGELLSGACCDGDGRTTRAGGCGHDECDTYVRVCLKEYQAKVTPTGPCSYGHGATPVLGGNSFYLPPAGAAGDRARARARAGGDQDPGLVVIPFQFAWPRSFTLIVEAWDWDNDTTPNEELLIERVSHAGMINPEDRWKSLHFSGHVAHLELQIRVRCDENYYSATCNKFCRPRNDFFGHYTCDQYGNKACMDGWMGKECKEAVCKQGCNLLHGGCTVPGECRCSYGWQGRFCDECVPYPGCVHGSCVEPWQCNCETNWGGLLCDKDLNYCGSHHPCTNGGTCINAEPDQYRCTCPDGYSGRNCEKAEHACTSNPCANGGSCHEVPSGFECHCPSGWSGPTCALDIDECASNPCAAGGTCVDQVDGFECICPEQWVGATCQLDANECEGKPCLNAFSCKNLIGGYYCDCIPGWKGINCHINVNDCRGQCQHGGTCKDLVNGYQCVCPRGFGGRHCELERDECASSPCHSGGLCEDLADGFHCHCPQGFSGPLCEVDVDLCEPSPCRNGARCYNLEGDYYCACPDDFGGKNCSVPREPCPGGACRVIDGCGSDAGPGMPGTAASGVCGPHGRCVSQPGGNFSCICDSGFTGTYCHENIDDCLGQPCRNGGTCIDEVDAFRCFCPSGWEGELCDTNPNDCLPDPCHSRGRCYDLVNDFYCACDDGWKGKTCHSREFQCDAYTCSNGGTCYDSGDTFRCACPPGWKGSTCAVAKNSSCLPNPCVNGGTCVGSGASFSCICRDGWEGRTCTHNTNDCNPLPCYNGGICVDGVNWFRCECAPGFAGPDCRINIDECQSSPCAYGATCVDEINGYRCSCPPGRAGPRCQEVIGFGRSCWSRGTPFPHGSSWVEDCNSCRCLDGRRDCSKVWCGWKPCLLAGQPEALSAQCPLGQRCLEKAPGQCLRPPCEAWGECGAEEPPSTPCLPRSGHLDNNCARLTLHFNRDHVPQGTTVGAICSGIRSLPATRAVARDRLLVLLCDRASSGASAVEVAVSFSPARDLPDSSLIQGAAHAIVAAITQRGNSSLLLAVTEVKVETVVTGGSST
Protocol: An ELISA assay was also carried out to determine the ability of the identified antibodies to bind to human JAG2. A 96-well ELISA plate was coated with human JAG2-Fc overnight. The next morning the plate was blocked with casein solution for 1 hour, followed by addition of serially diluted JG1H7 and JG1B10 IgG antibodies. As a control, antibodies were added to wells that were not coated with JAG2-Fc. After incubating for an hour, the plate was washed and labeled goat anti-human FD antibody was added for 30 minutes. The plate was washed, developed with substrate and the absorbance in each well measured on a spectrophotometer.

[5] = molecular target: T4, Recombinant human JAG1/His (human, UniProt P78504 34-1046, limits assumed); assay: SPR (BiaCore), antibody captured on anti-human Fc CM5 chip, JAG1/His as analyte, 1:1 Langmuir fit
T4 construct: Analyte of the BiaCore assay; also called human JAW [sic]; not shown: His tag
Protocol: The binding affinity of antibody JG1H7 for human JAG1 was tested using a BiaCore assay. Specifically, anti-human Fc antibody (GE, BR-1008-39) was immobilized on a CM5 sensor chip to approximately 700 RU using standard NHS/EDC coupling methodology. Antibodies (about 10 μg/ml) were captured for 60 s at a flow rate 10 μl/min. Recombinant human JAG1/His was serially diluted in running buffer (HBS-EP). All measurements were conducted with a flow rate of 30 μL/min Surfaces were regenerated with 3M MgCl₂ for 60 s. A 1:1 (Langmuir) binding model was used to fit the data.

[6] = molecular target: T2, biotinylated human delta-like 1 (DLL1); assay: capture ELISA: B10 IgG captured on anti-human lambda, serially diluted biotinylated DLL1, neutravidin-AP, PNPP, absorbance
Protocol: as §1

T1 sequence (P78504 34-1218): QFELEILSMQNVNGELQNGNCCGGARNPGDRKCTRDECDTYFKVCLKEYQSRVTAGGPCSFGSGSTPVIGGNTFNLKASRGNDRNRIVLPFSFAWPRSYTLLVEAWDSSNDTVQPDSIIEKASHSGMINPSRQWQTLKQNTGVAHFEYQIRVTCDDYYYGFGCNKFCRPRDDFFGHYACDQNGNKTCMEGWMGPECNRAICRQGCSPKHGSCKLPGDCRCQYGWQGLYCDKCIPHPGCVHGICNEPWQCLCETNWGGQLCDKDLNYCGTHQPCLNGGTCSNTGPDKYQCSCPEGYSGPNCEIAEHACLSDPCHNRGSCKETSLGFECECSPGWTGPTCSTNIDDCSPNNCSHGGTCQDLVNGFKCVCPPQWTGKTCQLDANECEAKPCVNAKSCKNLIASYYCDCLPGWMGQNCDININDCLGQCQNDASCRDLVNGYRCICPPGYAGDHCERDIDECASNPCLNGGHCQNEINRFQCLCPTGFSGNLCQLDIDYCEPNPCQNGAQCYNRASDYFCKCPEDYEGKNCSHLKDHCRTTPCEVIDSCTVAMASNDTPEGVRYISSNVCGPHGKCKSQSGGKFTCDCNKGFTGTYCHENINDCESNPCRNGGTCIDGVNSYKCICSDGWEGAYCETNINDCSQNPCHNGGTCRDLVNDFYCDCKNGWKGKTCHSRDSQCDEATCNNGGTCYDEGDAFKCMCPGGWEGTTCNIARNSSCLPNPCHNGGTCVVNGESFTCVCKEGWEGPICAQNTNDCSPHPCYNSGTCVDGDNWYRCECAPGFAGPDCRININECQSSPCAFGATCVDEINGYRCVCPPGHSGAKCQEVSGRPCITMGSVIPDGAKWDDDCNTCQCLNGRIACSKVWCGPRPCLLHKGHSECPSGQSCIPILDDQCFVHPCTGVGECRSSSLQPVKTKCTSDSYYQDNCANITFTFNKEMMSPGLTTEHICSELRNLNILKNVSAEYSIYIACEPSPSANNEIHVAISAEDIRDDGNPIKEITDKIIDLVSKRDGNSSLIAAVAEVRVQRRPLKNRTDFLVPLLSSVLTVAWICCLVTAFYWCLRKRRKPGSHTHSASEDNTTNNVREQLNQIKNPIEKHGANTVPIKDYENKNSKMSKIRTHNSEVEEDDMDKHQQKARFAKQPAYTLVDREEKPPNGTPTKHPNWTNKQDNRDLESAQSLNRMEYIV

B5: JG1B10 (antibody, V domains shown)
VH: EVQLVESGGGLVQPGGSLRLSCAASGSTFSSYGMHWVRQAPGKGLEWVAVIWYDGSNKYYADSVKGRFTISRDNSKNTLYLQMNSLRAEDTAVYYCARGYNHDYWGQGTLVTVSS
VL: LPVLTQPASVSGSPGQSITISCTGTSSDVGGYNYVSWYQQHPGKAPKLMIYDVSNRPSGVSNRFSGSKSGNTASLTISGLQAEDEADYYCSSYTSSSTYVFGIGTKLTVL
notes: also called B10JAG1
EC50 [1]: 32 nM | binding result [6]: no binding | IC50 (nM) of killing of Calu-6 cells by the antibody pre-complexed with Protein G-DM1 (1:4), Cell Titer Glo after 6 days [2]: 1.35 nM

B6: JG1A7 (antibody, V domains shown)
VH: QVQLVESGGGLVKPGGSLRLSCAASGFTFSDYYMSWIRQAPGKGLEWVSYISSSGSTIYYADSVKGRFTISRDNAKNSLYLQMNSLRAEDTAVYYCARVNSGYDAVDYWGQGTLVTVSS
VL: QSALTQPPSVSGAPGQTVTISCTGSRSNIGTYDVHWYQQFAGSAPKLLIYHNNDRSSGVPDRFSGSKSGTSASLAITGLQAEDEAVYFCQSHDNVLGGVFGGGTKLTVL
EC50 [1]: < 1 nM

Second part, led by results:

EC50 [1]: 97 nM
B1: JH1F4 (antibody, V domains shown)
VH: QVQLVQSGAEVKKPGASVKVSCKASGYTFTSYAMHWVRHAPGQRLEWMGWINAGNGNTKYSQKFQGRVTITRDTSASTAYMELSSLRSEDTAVYYCARDLDYYYGMDVWGQGTTVTVSS
VL: QPVLTQPPSASGTPGQRVTISCSGSSSNIGSNIVNWYQQLPGTAPKLLIYSNNRRPSGVPDRFSGSKSGSSASLAISGLQSEDEADYYCAAWDATLGGLYVFGTGTKVTVL
notes: also called JH-F4

EC50 [1]: 16 nM
B2: JG1C8 (antibody, V domains shown)
VH: EVQLVQSGAEVKKPGSSVKVSCKASGGTFSSYAISWVRQAPGQGLEWMGWISAYNGNTNYAQKLQGRVTMTTDTSTSTAYMELRSLRSDDTAVYYCARSRYDFWSGYYSGMDVWGQGTTVTVSS
VL: NFMLTQPRSVSGSPGQSVTISCTGTSSDVGGYHYVSWYQQHPGKAPKLIIYDVSRRPSGVPDRFSGSKSGNTASLTVSGLQAEDEADYYCSSYGGSNNFVFGTGTKLTVL
IC50 (nM) of killing of Calu-6 cells by the antibody pre-complexed with Protein G-DM1 (1:4), Cell Titer Glo after 6 days [2]: 87.3 nM

EC50 [1]: 27 nM
B3: JG1H11 (antibody, V domains shown)
VH: EVQLVESGGGVVQPGRSLRLSCAASGFTFSSYGMHWVRQAPGKGLEWVAVISYDGSNKYYADSVKGRFTISRDNSKNTLYLQMNSLRAEDTAVYYCAKDDWNYALDYWGQGTLVTVSS
VL: QPVLTQPASVSGSPGQSITISCTGTRSDVGGYSYVSWYQQHPGKAPKLIYDVTKRPSGVSNRFSGSKSGNTASLTISGLQAEDEADYYCSSYTSSSTYVFGTGTKVTVL
IC50 (nM) of killing of Calu-6 cells by the antibody pre-complexed with Protein G-DM1 (1:4), Cell Titer Glo after 6 days [2]: 26.5 nM

EC50 [1]: 16 nM | binding result [3]: no binding | EC50 (read off the curve) [4]: ~0.1 µg/mL | Ka [5]: 4.8e+06 M⁻¹ | Kd [5]: 208 nM | koff [5]: 0.0411 s⁻¹ | kon [5]: 197000 M⁻¹ s⁻¹
B4: JG1H7 (antibody, V domains shown)
VH: QVQLVQSGGGLIQPGGSLRLSCAASAFTVSNFYMTWVRQAPGKGLEWVSVIDSGGNTYYADSVRGRFTISRDNSKNTLFLQMNSLRAEDTAVYYCARDLGYYYAMDVWGQGTTVTVSS
VL: DIVMTQSPSSLSASVGDRVTITCRASQSISTSLNWYQQKPGKAPKLLIYAASSLQSGVPSRFSGSGSGTDFTLTISSLQPEDFATYYCQQSYSTPTFGQGTKLEIK
notes: captured by anti-human Fc in the BiaCore assay
IC50 (nM) of killing of Calu-6 cells by the antibody pre-complexed with Protein G-DM1 (1:4), Cell Titer Glo after 6 days [2]: 3.89 nM

Source: patent US20160257759A1 (SORRENTO THERAPEUTICS, published 2016)
